Source: PMC6555819, “Comprehensive study of nuclear receptor DNA binding provides a revised framework for understanding receptor specificity”

Target: RARb:RXRa (Homo sapiens, UniProt P10826;P19793 full;full)
Test: no ligand; PBM; 270 nM : 90 nM RXRa; PBS pH 7.4, 2% milk, 0.02% Triton X-100, 1 mM DTT, BSA, 0.4 mg/ml salmon testes DNA
Details: tags: His kept;His cleaved; copies: 1;1; label: surface-attached array probe
Summary of the method: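 Regression normalization was applied to scanned fluorescence from custom Agilent 4×180K protein-binding microarrays. Before scanning, arrays were incubated 1 h with ligand-free nuclear receptor dimers, and binding was detected with antibodies against each partner (one per run). Binding z-scores use the random background probes as reference.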

RARb:RXRa, sequence (P10826 whole entry, chain 1 of 2): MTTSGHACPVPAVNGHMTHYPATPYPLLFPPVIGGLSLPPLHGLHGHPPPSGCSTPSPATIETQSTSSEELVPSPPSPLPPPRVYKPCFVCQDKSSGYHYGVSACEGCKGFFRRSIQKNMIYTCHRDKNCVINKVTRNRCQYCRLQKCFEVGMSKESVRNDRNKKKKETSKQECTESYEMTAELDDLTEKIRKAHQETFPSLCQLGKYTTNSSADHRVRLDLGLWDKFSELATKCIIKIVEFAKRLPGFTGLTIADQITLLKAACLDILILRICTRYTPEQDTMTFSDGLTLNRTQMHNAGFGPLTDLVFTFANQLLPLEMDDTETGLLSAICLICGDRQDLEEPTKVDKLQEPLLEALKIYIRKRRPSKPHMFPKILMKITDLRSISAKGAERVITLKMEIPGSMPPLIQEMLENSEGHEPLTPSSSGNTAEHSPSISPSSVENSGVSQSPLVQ
RARb:RXRa, sequence (P19793 whole entry, chain 2 of 2): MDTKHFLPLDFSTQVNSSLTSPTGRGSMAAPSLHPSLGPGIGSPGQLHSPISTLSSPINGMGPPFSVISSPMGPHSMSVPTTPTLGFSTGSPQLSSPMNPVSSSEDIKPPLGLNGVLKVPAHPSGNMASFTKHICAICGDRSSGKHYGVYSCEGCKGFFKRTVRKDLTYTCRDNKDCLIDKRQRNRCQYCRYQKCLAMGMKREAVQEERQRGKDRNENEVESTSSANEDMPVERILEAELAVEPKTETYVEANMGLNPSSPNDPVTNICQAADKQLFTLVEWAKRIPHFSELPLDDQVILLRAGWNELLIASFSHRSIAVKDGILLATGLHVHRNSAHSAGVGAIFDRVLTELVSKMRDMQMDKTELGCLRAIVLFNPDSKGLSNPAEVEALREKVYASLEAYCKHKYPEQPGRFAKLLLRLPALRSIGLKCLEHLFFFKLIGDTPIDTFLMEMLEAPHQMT

Row | Binder | binding signal
1 | NRC3_random_hg19_265_o1 (dsDNA) DNA 1: GCCTCCCTCCTCCCATCCTCCACTTTCCCATAGGCCGCGATTGACAGCGTAGAATGAAGG DNA 2: CCTTCATTCTACGCTGTCAATCGCGGCCTATGGGAAAGTGGAGGATGGGAGGAGGGAGGC | 0.13 PBM z-score against 500 random probes
2 | NRC3_random_hg19_179_o1 (dsDNA) DNA 1: GCGGGAGGTGTAAGGATCCTTGTGCACTGCTTGGGAGCGATTGACAGCGTAGAATGAAGG DNA 2: CCTTCATTCTACGCTGTCAATCGCTCCCAAGCAGTGCACAAGGATCCTTACACCTCCCGC | 0.23 PBM z-score against 500 random probes
3 | NRC3_wobSeed117_DR4_T11C_o1 (dsDNA) DNA 1: GCCGTCAAAGCTCAACTAAGGTAACGTAAAGCACGCGCGATTGACAGCGTAGAATGAAGG DNA 2: CCTTCATTCTACGCTGTCAATCGCGCGTGCTTTACGTTACCTTAGTTGAGCTTTGACGGC | 0.06 PBM z-score against 500 random probes
4 | NRC3_random_hg19_75_o1 (dsDNA) DNA 1: GCCTGAAACTACCTTATCTCTATTCTAGGCTTAAGCGCGATTGACAGCGTAGAATGAAGG DNA 2: CCTTCATTCTACGCTGTCAATCGCGCTTAAGCCTAGAATAGAGATAAGGTAGTTTCAGGC | 0.33 PBM z-score against 500 random probes
5 | NRC3_random_hg19_324_o1 (dsDNA) DNA 1: GCCAGTGATGCACACCTGTAACCCTAGCACTTTGGGGCGATTGACAGCGTAGAATGAAGG DNA 2: CCTTCATTCTACGCTGTCAATCGCCCCAAAGTGCTAGGGTTACAGGTGTGCATCACTGGC | 0.04 PBM z-score against 500 random probes
6 | NRC3_random_hg19_331_o1 (dsDNA) DNA 1: GCACAATCCCTACACTTTAGGAAGTCACAGTCTAGTGCGATTGACAGCGTAGAATGAAGG DNA 2: CCTTCATTCTACGCTGTCAATCGCACTAGACTGTGACTTCCTAAAGTGTAGGGATTGTGC | 0.39 PBM z-score against 500 random probes
7 | NRC3_wobSeed76_DR3_G19T_o1 (dsDNA) DNA 1: GCCCTACTGGGCCAAAAATGTCATTGATGCCGATAAGCGATTGACAGCGTAGAATGAAGG DNA 2: CCTTCATTCTACGCTGTCAATCGCTTATCGGCATCAATGACATTTTTGGCCCAGTAGGGC | 0.29 PBM z-score against 500 random probes
8 | NRC3_wobSeed138_DR5_G10A_o1 (dsDNA) DNA 1: GCGATACAGAGTCAGCTAGAGGCCAGAGTATGGAAAGCGATTGACAGCGTAGAATGAAGG DNA 2: CCTTCATTCTACGCTGTCAATCGCTTTCCATACTCTGGCCTCTAGCTGACTCTGTATCGC | 0.27 PBM z-score against 500 random probes
9 | NRC3_wobSeed28_DR1_A21C_o1 (dsDNA) DNA 1: GCCCTACTGGGCCAAAGGTCCTTGATTCCAATGCTCGCGATTGACAGCGTAGAATGAAGG DNA 2: CCTTCATTCTACGCTGTCAATCGCGAGCATTGGAATCAAGGACCTTTGGCCCAGTAGGGC | 0.42 PBM z-score against 500 random probes
10 | NRC3_random_hg19_459_o1 (dsDNA) DNA 1: GCAAACACAACAGTACCTACCTTAAGCAGTTCATCAGCGATTGACAGCGTAGAATGAAGG DNA 2: CCTTCATTCTACGCTGTCAATCGCTGATGAACTGCTTAAGGTAGGTACTGTTGTGTTTGC | 0.25 PBM z-score against 500 random probes
11 | NRC3_wobSeed88_DR3_T12A_o1 (dsDNA) DNA 1: GCTAGCCTAGGACATGCGGGCCAGTATAGTGTCGGCGCGATTGACAGCGTAGAATGAAGG DNA 2: CCTTCATTCTACGCTGTCAATCGCGCCGACACTATACTGGCCCGCATGTCCTAGGCTAGC | -0.15 PBM z-score against 500 random probes
12 | NRC3_wobSeed40_DR1_T12C_o1 (dsDNA) DNA 1: GCTAGCCTAGGCCATGGGCCAGTATACCACGCGAACGCGATTGACAGCGTAGAATGAAGG DNA 2: CCTTCATTCTACGCTGTCAATCGCGTTCGCGTGGTATACTGGCCCATGGCCTAGGCTAGC | 0.19 PBM z-score against 500 random probes
13 | NRC3_wobSeed93_DR3_G10T_o1 (dsDNA) DNA 1: GCAGTCAAATTTCATCTAGGTAACGTAAGATATGCTGCGATTGACAGCGTAGAATGAAGG DNA 2: CCTTCATTCTACGCTGTCAATCGCAGCATATCTTACGTTACCTAGATGAAATTTGACTGC | 0.23 PBM z-score against 500 random probes
14 | NRC3_wobSeed16_DR0_C13G_o1 (dsDNA) DNA 1: GCCAGCCTAGGTGAGGGCCAGTATAGGAGGAACGTTGCGATTGACAGCGTAGAATGAAGG DNA 2: CCTTCATTCTACGCTGTCAATCGCAACGTTCCTCCTATACTGGCCCTCACCTAGGCTGGC | 0.33 PBM z-score against 500 random probes
15 | NRC3_wobSeed86_DR3_C13A_o1 (dsDNA) DNA 1: GCGCTGCTAGGTAAGGTTGGTCAGCTAACGGGTACGGCGATTGACAGCGTAGAATGAAGG DNA 2: CCTTCATTCTACGCTGTCAATCGCCGTACCCGTTAGCTGACCAACCTTACCTAGCAGCGC | 0.16 PBM z-score against 500 random probes
16 | NRC3_wobSeed34_DR1_A9T_o1 (dsDNA) DNA 1: GCATCGAATGGTCGAAGGTGAGTATACCCACCCGAAGCGATTGACAGCGTAGAATGAAGG DNA 2: CCTTCATTCTACGCTGTCAATCGCTTCGGGTGGGTATACTCACCTTCGACCATTCGATGC | 0.4 PBM z-score against 500 random probes
17 | NRC3_wobSeed66_DR2_G11A_o1 (dsDNA) DNA 1: GCAATACAGGATCACTAGGCCAGAGTAGGTACGAATGCGATTGACAGCGTAGAATGAAGG DNA 2: CCTTCATTCTACGCTGTCAATCGCATTCGTACCTACTCTGGCCTAGTGATCCTGTATTGC | 0.18 PBM z-score against 500 random probes
18 | NRC3_wobSeed90_DR3_A14C_o1 (dsDNA) DNA 1: GCCATACAGGGTCCGCTAGGCCAGAGTAGGGACGGCGCGATTGACAGCGTAGAATGAAGG DNA 2: CCTTCATTCTACGCTGTCAATCGCGCCGTCCCTACTCTGGCCTAGCGGACCCTGTATGGC | 0.26 PBM z-score against 500 random probes
19 | NRC3_wobSeed87_DR3_T12A_o1 (dsDNA) DNA 1: GCCGAACTAGGACATCCAGGACAGTGAATACATTGAGCGATTGACAGCGTAGAATGAAGG DNA 2: CCTTCATTCTACGCTGTCAATCGCTCAATGTATTCACTGTCCTGGATGTCCTAGTTCGGC | 0.14 PBM z-score against 500 random probes
20 | NRC3_wobSeed100_DR4_C23A_o1 (dsDNA) DNA 1: GCCCTACTGGGCCACGAAAGGTAATTGATTCAGTGAGCGATTGACAGCGTAGAATGAAGG DNA 2: CCTTCATTCTACGCTGTCAATCGCTCACTGAATCAATTACCTTTCGTGGCCCAGTAGGGC | 0.41 PBM z-score against 500 random probes
21 | NRC3_random_hg19_4_o1 (dsDNA) DNA 1: GCGTAGTTGTGTCCTCTCCTGTTCTCTCTTCTACTGGCGATTGACAGCGTAGAATGAAGG DNA 2: CCTTCATTCTACGCTGTCAATCGCCAGTAGAAGAGAGAACAGGAGAGGACACAACTACGC | 0.3 PBM z-score against 500 random probes
22 | NRC3_wobSeed21_DR0_A14T_o1 (dsDNA) DNA 1: GCCGTCAAAGTTCTAGGTAACGTAACAGAAAGCAGCGCGATTGACAGCGTAGAATGAAGG DNA 2: CCTTCATTCTACGCTGTCAATCGCGCTGCTTTCTGTTACGTTACCTAGAACTTTGACGGC | 0.4 PBM z-score against 500 random probes
23 | NRC3_wobSeed15_DR0_G11C_o1 (dsDNA) DNA 1: GCCGAACTAGCTCAAGGACAGTGAATCTCCGCACGCGCGATTGACAGCGTAGAATGAAGG DNA 2: CCTTCATTCTACGCTGTCAATCGCGCGTGCGGAGATTCACTGTCCTTGAGCTAGTTCGGC | 0.3 PBM z-score against 500 random probes
24 | NRC3_wobSeed38_DR1_A14T_o1 (dsDNA) DNA 1: GCCCTGCTAGGTCTATGGTCAGCTAAAGCAGCTCGCGCGATTGACAGCGTAGAATGAAGG DNA 2: CCTTCATTCTACGCTGTCAATCGCGCGAGCTGCTTTAGCTGACCATAGACCTAGCAGGGC | 0.39 PBM z-score against 500 random probes
